# Measurements: paper PMC9482650, “Quantitative fragmentomics allow affinity mapping of interactomes” (Nature Communications, 2022)
# T1: RAPGEF6, Q8TEU7
# T1 sequence (Q8TEU7 525-625, limits assumed, looked up): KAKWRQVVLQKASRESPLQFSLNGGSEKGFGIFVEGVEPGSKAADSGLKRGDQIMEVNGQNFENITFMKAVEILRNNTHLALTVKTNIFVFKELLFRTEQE
# T2: CARD11, Q9BXL7
# T2 sequence (Q9BXL7 662-765, limits assumed, looked up): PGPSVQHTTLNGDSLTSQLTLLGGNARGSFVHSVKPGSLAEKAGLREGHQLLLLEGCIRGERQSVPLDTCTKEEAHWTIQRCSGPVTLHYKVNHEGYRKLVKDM
# T3: APBA2_2, Q99767
# T3 sequence (Q99767 654-744, limits assumed, looked up): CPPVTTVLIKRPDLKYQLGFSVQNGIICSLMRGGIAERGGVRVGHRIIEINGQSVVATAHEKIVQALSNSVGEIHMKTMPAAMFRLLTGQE
# T4: SNTB1, Q13884
# T4 sequence (Q13884 107-205, limits assumed, looked up): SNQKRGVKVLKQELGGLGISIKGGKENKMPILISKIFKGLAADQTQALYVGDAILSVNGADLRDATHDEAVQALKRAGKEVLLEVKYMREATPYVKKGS
# T5: SNTG1, Q9NSN8
# T5 sequence (Q9NSN8 52-150, limits assumed, looked up): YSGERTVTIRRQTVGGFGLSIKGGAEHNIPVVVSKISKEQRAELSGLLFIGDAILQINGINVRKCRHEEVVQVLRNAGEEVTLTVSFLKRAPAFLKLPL
# T6: DFNB31_1, Q9P202
# T6 sequence (Q9P202 135-233, limits assumed, looked up): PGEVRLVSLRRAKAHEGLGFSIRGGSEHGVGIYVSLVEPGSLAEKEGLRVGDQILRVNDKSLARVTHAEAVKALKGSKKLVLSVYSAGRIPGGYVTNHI
# T7: HTRA3, P83110
# T7 sequence (P83110 354-453, limits assumed, looked up): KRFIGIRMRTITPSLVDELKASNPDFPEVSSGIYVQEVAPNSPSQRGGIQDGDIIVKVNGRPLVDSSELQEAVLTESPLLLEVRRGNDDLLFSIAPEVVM
# T8: TJP3_3, O95049
# T8 sequence (O95049 375-456, limits assumed, looked up): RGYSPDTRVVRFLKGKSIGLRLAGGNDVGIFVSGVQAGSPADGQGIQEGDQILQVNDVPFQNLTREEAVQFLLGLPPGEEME
# T9: LNX2_2, Q8N448
# T9 sequence (Q8N448 334-432, limits assumed, looked up): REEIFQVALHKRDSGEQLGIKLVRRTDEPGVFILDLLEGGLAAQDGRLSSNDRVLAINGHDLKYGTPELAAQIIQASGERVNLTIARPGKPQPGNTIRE
# T10: DFNB31_3, Q9P202
# T10 sequence (Q9P202 811-907, limits assumed, looked up): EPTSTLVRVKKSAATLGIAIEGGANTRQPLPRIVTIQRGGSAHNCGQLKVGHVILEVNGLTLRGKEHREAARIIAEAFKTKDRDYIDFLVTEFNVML
# T11: DFNB31_2, Q9P202
# T11 sequence (Q9P202 274-371, limits assumed, looked up): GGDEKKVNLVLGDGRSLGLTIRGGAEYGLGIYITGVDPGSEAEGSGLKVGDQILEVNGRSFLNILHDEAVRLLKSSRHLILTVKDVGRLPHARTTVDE
# T12: MPDZ_12, O75970
# T12 sequence (O75970 1857-1958, limits assumed, looked up): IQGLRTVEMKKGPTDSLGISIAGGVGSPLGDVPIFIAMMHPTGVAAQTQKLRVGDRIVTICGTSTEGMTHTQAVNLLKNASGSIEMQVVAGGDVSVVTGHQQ
# T13: ARHGAP21, Q5T5U3
# T13 sequence (Q5T5U3 45-169, limits assumed, looked up): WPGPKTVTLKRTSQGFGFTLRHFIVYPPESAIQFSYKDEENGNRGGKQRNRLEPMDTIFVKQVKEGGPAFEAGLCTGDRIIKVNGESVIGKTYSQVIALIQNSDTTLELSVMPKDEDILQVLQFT
# Molecular target: PTPN3, P26045
# Test: holdup assay
# Set-up: key: below the threshold = too weak to quantify, mostly under pKd 3.1 to 4
# Details: plain residues with an end cap or a label only (N-terminal biotin on a linker: ado-ado)
# Sequence of PTPN3, P26045 (P26045 505-587): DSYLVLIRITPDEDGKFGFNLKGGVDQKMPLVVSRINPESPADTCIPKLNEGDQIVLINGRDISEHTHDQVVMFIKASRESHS
row,Binder,pKd
1,"AKPSRISTVV [IQSEC2, Q5JU85]",4.21

# Molecular target: T1, RAPGEF6, Q8TEU7
# Test: holdup assay
# Set-up: key: below the threshold = too weak to quantify, mostly under pKd 3.1 to 4
# Details: plain residues with an end cap or a label only (N-terminal biotin on a linker: ado-ado)
row,Binder,pKd
1,"AKPSRISTVV [IQSEC2, Q5JU85]",below the threshold

# Molecular target: T2, CARD11, Q9BXL7
# Test: holdup assay
# Set-up: key: below the threshold = too weak to quantify, mostly under pKd 3.1 to 4
# Details: plain residues with an end cap or a label only (N-terminal biotin on a linker: ado-ado)
row,Binder,pKd
1,"AKPSRISTVV [IQSEC2, Q5JU85]",below the threshold

# Molecular target: MAGI2_6, Q86UL8
# Test: holdup assay
# Set-up: key: below the threshold = too weak to quantify, mostly under pKd 3.1 to 4
# Details: plain residues with an end cap or a label only (N-terminal biotin on a linker: ado-ado)
# Sequence of MAGI2_6, Q86UL8 (Q86UL8 1141-1229): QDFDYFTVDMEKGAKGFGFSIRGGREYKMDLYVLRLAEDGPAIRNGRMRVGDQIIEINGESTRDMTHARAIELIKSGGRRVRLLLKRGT
row,Binder,pKd
1,"AKPSRISTVV [IQSEC2, Q5JU85]",below the threshold

# Molecular target: NHERF4_2, Q86UT5
# Test: holdup assay
# Set-up: key: below the threshold = too weak to quantify, mostly under pKd 3.1 to 4
# Details: plain residues with an end cap or a label only (N-terminal biotin on a linker: ado-ado)
# Sequence of NHERF4_2, Q86UT5 (Q86UT5 220-308): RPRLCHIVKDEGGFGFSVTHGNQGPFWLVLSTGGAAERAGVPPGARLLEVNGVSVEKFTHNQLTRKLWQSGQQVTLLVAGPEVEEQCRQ
row,Binder,pKd
1,"AKPSRISTVV [IQSEC2, Q5JU85]",below the threshold

# Molecular target: T3, APBA2_2, Q99767
# Test: holdup assay
# Set-up: key: below the threshold = too weak to quantify, mostly under pKd 3.1 to 4
# Details: plain residues with an end cap or a label only (N-terminal biotin on a linker: ado-ado)
row,Binder,pKd
1,"AKPSRISTVV [IQSEC2, Q5JU85]",below the threshold

# Molecular target: T4, SNTB1, Q13884
# Test: holdup assay
# Set-up: key: below the threshold = too weak to quantify, mostly under pKd 3.1 to 4
# Details: plain residues with an end cap or a label only (N-terminal biotin on a linker: ado-ado)
row,Binder,pKd
1,"AKPSRISTVV [IQSEC2, Q5JU85]",4.16

# Molecular target: GIPC2, Q8TF65
# Test: holdup assay
# Set-up: key: below the threshold = too weak to quantify, mostly under pKd 3.1 to 4
# Details: plain residues with an end cap or a label only (N-terminal biotin on a linker: ado-ado)
# Sequence of GIPC2, Q8TF65 (Q8TF65 112-203): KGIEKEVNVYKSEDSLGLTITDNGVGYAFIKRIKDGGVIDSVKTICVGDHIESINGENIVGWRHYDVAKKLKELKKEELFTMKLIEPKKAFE
row,Binder,pKd
1,"AKPSRISTVV [IQSEC2, Q5JU85]",below the threshold

# Molecular target: T5, SNTG1, Q9NSN8
# Test: holdup assay
# Set-up: key: below the threshold = too weak to quantify, mostly under pKd 3.1 to 4
# Details: plain residues with an end cap or a label only (N-terminal biotin on a linker: ado-ado)
row,Binder,pKd
1,"AKPSRISTVV [IQSEC2, Q5JU85]",below the threshold

# Molecular target: T6, DFNB31_1, Q9P202
# Test: holdup assay
# Set-up: key: below the threshold = too weak to quantify, mostly under pKd 3.1 to 4
# Details: plain residues with an end cap or a label only (N-terminal biotin on a linker: ado-ado)
row,Binder,pKd
1,"AKPSRISTVV [IQSEC2, Q5JU85]",below the threshold

# Molecular target: PICK1, Q9NRD5
# Test: holdup assay
# Set-up: key: below the threshold = too weak to quantify, mostly under pKd 3.1 to 4
# Details: plain residues with an end cap or a label only (N-terminal biotin on a linker: ado-ado)
# Sequence of PICK1, Q9NRD5 (Q9NRD5 17-115): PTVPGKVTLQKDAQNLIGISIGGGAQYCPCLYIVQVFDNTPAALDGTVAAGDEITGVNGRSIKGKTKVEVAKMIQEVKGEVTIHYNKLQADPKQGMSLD
row,Binder,pKd
1,"AKPSRISTVV [IQSEC2, Q5JU85]",4.14

# Molecular target: SNX27, Q96L92
# Test: holdup assay
# Set-up: key: below the threshold = too weak to quantify, mostly under pKd 3.1 to 4
# Details: plain residues with an end cap or a label only (N-terminal biotin on a linker: ado-ado)
row,Binder,pKd
1,"AKPSRISTVV [IQSEC2, Q5JU85]",3.98

# Molecular target: FRMPD4, Q14CM0
# Test: holdup assay
# Set-up: key: below the threshold = too weak to quantify, mostly under pKd 3.1 to 4
# Details: plain residues with an end cap or a label only (N-terminal biotin on a linker: ado-ado)
# Sequence of FRMPD4, Q14CM0 (Q14CM0 67-160): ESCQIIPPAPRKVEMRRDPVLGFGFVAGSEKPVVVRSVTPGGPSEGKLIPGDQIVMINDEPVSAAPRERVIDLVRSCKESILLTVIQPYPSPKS
row,Binder,pKd
1,"AKPSRISTVV [IQSEC2, Q5JU85]",below the threshold

# Molecular target: T7, HTRA3, P83110
# Test: holdup assay
# Set-up: key: below the threshold = too weak to quantify, mostly under pKd 3.1 to 4
# Details: plain residues with an end cap or a label only (N-terminal biotin on a linker: ado-ado)
row,Binder,pKd
1,"AKPSRISTVV [IQSEC2, Q5JU85]",3.65

# Molecular target: Inadl_4, Q8NI35
# Test: holdup assay
# Set-up: key: below the threshold = too weak to quantify, mostly under pKd 3.1 to 4
# Details: plain residues with an end cap or a label only (N-terminal biotin on a linker: ado-ado)
# Sequence of Inadl_4, Q8NI35 (Q8NI35 547-651): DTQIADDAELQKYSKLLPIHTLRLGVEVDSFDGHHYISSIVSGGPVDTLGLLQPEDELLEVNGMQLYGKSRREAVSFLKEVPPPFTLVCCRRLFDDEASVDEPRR
row,Binder,pKd
1,"AKPSRISTVV [IQSEC2, Q5JU85]",below the threshold

# Molecular target: T8, TJP3_3, O95049
# Test: holdup assay
# Set-up: key: below the threshold = too weak to quantify, mostly under pKd 3.1 to 4
# Details: plain residues with an end cap or a label only (N-terminal biotin on a linker: ado-ado)
row,Binder,pKd
1,"AKPSRISTVV [IQSEC2, Q5JU85]",below the threshold

# Molecular target: IL16_3, Q14005
# Test: holdup assay
# Set-up: key: below the threshold = too weak to quantify, mostly under pKd 3.1 to 4
# Details: plain residues with an end cap or a label only (N-terminal biotin on a linker: ado-ado)
# Sequence of IL16_3, Q14005 (Q14005 1107-1207): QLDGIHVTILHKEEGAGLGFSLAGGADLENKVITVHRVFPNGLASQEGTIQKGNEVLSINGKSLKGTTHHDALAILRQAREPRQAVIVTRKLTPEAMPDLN
row,Binder,pKd
1,"AKPSRISTVV [IQSEC2, Q5JU85]",below the threshold

# Molecular target: T9, LNX2_2, Q8N448
# Test: holdup assay
# Set-up: key: below the threshold = too weak to quantify, mostly under pKd 3.1 to 4
# Details: plain residues with an end cap or a label only (N-terminal biotin on a linker: ado-ado)
row,Binder,pKd
1,"AKPSRISTVV [IQSEC2, Q5JU85]",5.09

# Molecular target: Inadl_10, Q8NI35
# Test: holdup assay
# Set-up: key: below the threshold = too weak to quantify, mostly under pKd 3.1 to 4
# Details: plain residues with an end cap or a label only (N-terminal biotin on a linker: ado-ado)
# Sequence of Inadl_10, Q8NI35 (Q8NI35 1673-1763): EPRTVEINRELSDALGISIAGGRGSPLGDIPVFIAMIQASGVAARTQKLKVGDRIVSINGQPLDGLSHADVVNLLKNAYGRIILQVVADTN
row,Binder,pKd
1,"AKPSRISTVV [IQSEC2, Q5JU85]",below the threshold

# Molecular target: T10, DFNB31_3, Q9P202
# Test: holdup assay
# Set-up: key: below the threshold = too weak to quantify, mostly under pKd 3.1 to 4
# Details: plain residues with an end cap or a label only (N-terminal biotin on a linker: ado-ado)
row,Binder,pKd
1,"AKPSRISTVV [IQSEC2, Q5JU85]",below the threshold

# Molecular target: T11, DFNB31_2, Q9P202
# Test: holdup assay
# Set-up: key: below the threshold = too weak to quantify, mostly under pKd 3.1 to 4
# Details: plain residues with an end cap or a label only (N-terminal biotin on a linker: ado-ado)
row,Binder,pKd
1,"AKPSRISTVV [IQSEC2, Q5JU85]",below the threshold

# Molecular target: SCRIB_1, Q14160
# Test: holdup assay
# Set-up: key: below the threshold = too weak to quantify, mostly under pKd 3.1 to 4
# Details: plain residues with an end cap or a label only (N-terminal biotin on a linker: ado-ado)
# Sequence of SCRIB_1, Q14160 (Q14160 718-814): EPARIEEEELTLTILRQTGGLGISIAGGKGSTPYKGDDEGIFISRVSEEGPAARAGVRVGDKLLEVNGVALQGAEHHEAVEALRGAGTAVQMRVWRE
row,Binder,pKd
1,"AKPSRISTVV [IQSEC2, Q5JU85]",3.58

# Molecular target: T12, MPDZ_12, O75970
# Test: holdup assay
# Set-up: key: below the threshold = too weak to quantify, mostly under pKd 3.1 to 4
# Details: plain residues with an end cap or a label only (N-terminal biotin on a linker: ado-ado)
row,Binder,pKd
1,"AKPSRISTVV [IQSEC2, Q5JU85]",3.49

# Molecular target: NOS1, P29475
# Test: holdup assay
# Set-up: key: below the threshold = too weak to quantify, mostly under pKd 3.1 to 4
# Details: plain residues with an end cap or a label only (N-terminal biotin on a linker: ado-ado)
# Sequence of NOS1, P29475 (P29475 9-101): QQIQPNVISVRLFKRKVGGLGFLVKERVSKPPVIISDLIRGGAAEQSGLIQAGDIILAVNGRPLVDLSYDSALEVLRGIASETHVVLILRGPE
row,Binder,pKd
1,"AKPSRISTVV [IQSEC2, Q5JU85]",3.65

# Molecular target: T13, ARHGAP21, Q5T5U3
# Test: holdup assay
# Set-up: key: below the threshold = too weak to quantify, mostly under pKd 3.1 to 4
# Details: plain residues with an end cap or a label only (N-terminal biotin on a linker: ado-ado)
row,Binder,pKd
1,"AKPSRISTVV [IQSEC2, Q5JU85]",below the threshold
